Experimental findings from PMC4175335, “Thiosulfate Transfer Mediated by DsrE/TusA Homologs from Acidothermophilic Sulfur-oxidizing Archaeon Metallosphaera cuprina*” (The Journal of Biological Chemistry, 2014) are described below.

Broadly, the stoichiometry N is a count of units in the complex or per binding partner. As a reminder, the Kd is the constant that tells how readily two partners part at equilibrium.

The labels stand for the following.
B1: DsrE3A (Mcup_0681) of Metallosphaera cuprina Ar-4, N-terminally His-tagged (natural protein, UniProt F4G1H3 1-133, looked up)
chain: MAQTQTEQAQEEQKKKILIVVTHGPEDLDRTYAPLFMASISASMEYETSVFFMIKGPLLLSKKWQEDERKKGGNPFIHFFDMAKDNNVKMYVCVQSLKDMCHMNESDVVDGIELVGGSTLIDLTLDADRTLFF
notes: DsrE3A, locus Mcup_0681, Metallosphaera cuprina Ar-4; gene amplified from genomic DNA into pET15b; theoretical mass with His tag 17,697 Da; Homotrimer by gel filtration
B2: TusA (Mcup_0683) of Metallosphaera cuprina Ar-4, N-terminally His-tagged (natural protein, UniProt F4G1H5 1-80, looked up)
chain: MAQDVKITKTLDVKGMYCPGPVMETAKAIKQINVGEVLEVLATDPAAKPDIEAWARRTGNQILDIQQQGGVTRILVKRAK
notes: TusA, locus Mcup_0683, Metallosphaera cuprina Ar-4; gene amplified from genomic DNA into pET15b; theoretical mass with His tag 10,895 Da; Occurs as monomers and dimers

The target in data set [1] is DsrE3A-C93S/C101S with His-tag (Metallosphaera cuprina Ar-4). The experiment in a line: SEC; oligomerization analysis, data not shown; proteins incubated with or without 25 μM TCEP at room temperature for 1 h; HiLoad 16/60 Superdex 75; 50 mM Tris-HCl (pH 7.5), 150 mM KCl; 0.5 ml/min. Background: In gel filtration, larger molecules generally elute earlier.
Data set [2] deals with DsrE3A-C101S with His-tag (Metallosphaera cuprina Ar-4). The data set is described as above.
Data set [3] addresses DsrE3A-C93S with His-tag (Metallosphaera cuprina Ar-4). The data set is described as above.
Data set [4] deals with the molecule itself. Described as above.
In data set [5] the target is B1. Description: SPR; Biacore 3000, CM5 chip, 25 °C; DsrE3A covalently immobilised (about 1500 RU); TusA as analyte in PBST (PBS, 0.005% Tween 20, pH 7.4), 30 μl/min, 2 min injection, 8 min dissociation. The conditions noted are these: both partners purified. (SPR reads the build-up and loss of mass on a sensor chip optically.)

With “DsrE3A-C93S/C101S with His-tag (natural protein)”, the stoichiometry N in data set [1] amounted to 3.

“DsrE3A-C101S with His-tag (natural protein)”: in data set [2], the stoichiometry N stood at 3.

In data set [3], “DsrE3A-C93S with His-tag (natural protein)” showed a stoichiometry N of 3.

In the case of B1, the “stoichiometry N” value in data set [4] was found to be 3.

Turning to B2, the “stoichiometry N” value in data set [4] is 2. The molecule further displayed a Kd in data set [5] of 0.1 nM.
